From patent publication US9290540B2, “Angiotensin Type 2 (AT2) receptor agonists and uses thereof” (Lanthio Pep B.V., priority 2010, dated 2016)
Bridges are numbered along the chain shown (N, C = ends). Where no end group is shown, it is not given here. [ ]: non-standard residue; d: D form.

Assays:
AT2 receptor = target: T1, AT2 receptor (Homo sapiens, UniProt P50052); assay: Inhibition of peptide-induced ERK phosphorylation by AT2 receptor antagonist PD123319 in HBE cells; assay type: cell-based; settings: for inhibition of peptide-induced ERK1 phosphorylation by PD123319 / inhibition of peptide-induced ERK2 phosphorylation by PD123319 / inhibition of peptide-induced ERK phosphorylation (ERK1 and ERK2) by PD123319 / inhibition of peptide-induced (total) Erk phosphorylation by PD123319: 20 min preincubation with 10^-6 M PD123319, peptide 10^-6 M
T1 construct: stimulate extracellular-signal-regulated kinase (ERK) phosphorylation in human bronchial epithelial (HBE) cells; endogenous in cells; host or cells: HBE (immortal human bronchial epithelial cell line)
T1 sequence (P50052 1-363): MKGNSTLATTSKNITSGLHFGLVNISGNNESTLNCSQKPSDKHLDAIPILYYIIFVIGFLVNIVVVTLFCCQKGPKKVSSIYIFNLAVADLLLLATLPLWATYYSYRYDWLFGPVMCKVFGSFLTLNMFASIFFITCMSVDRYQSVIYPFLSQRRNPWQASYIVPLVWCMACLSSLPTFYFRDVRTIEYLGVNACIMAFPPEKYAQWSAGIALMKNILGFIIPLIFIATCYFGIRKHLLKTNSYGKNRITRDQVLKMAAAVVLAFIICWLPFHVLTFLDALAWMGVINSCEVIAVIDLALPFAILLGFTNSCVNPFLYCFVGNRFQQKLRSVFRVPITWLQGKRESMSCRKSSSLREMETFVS
Procedure: (§1) Peptides were purchased from JPT: linear DDRVAIHA (SEQ ID No: 4), dKDRVdCIHC (SEQ ID No: 9), KDRVdCIHC (SEQ ID No: 9), DDRVdCIHC (SEQ ID No: 11), IDRVdCIHC (SEQ ID No: 12), NDRVdCIHC (SEQ ID No: 13), SDRVdCIHC (SEQ ID No: 14), in which dK stands for D-lysine and dC stands for D-cysteine. The AT2 receptor antagonist PD123319 was from Axon Medchem. Studies were performed using the immortal human bronchial epithelial cell line HBE (Cozens A L, et al. 1994 CFTR expression and chloride secretion in polarized immortal human bronchial epithelial cells. Am J Respir Cell Mol Biol 10:38-47). All culture media and supplements, multiwell plates and flasks were from PAA.
(§2) Cell culture. Multi-well plates received 1 ml from a coating solution (for 112 ml: F12 medium 100 ml; bovine serum albumin 10 ml (1 mg/ml); collagen I, Bovine 1 ml (3 mg/ml); human fibronectin 1 ml (1 mg/ml)) and were incubated for 6 hours at 37° C. and 5% CO2. Subsequently the coating solution was discarded and the plates were dried for 2 hours in the laminar flow cabinet. In each 12 well plate 8.10^4 HBE cells were seeded per well followed by incubation for 24 hours at 37° C. and 5% CO2. Cell culture medium was prepared by adding 432.2 ml MEM 199 basic medium to 50 ml […] FCS and 5 ml L-Glutamin (200 mM), 10 ml Penicillin/Streptomycin (10.000 units/ml/10 mg/ml) and 2.8 ml Gentamycin (10 mg/ml). At 85-90% confluency medium was replaced by medium without FCS and growth factors followed by again 24 hours incubation at 37° C. and 5% CO2.
(§3) Erk1 and Erk2 phosphorylation. The medium was removed from each well and was washed once with HBS buffer without calcium and magnesium. The capacity of peptide at 10^−6 M was tested after 20 min preincubation with either 10^−6 M of PD123319 or concomitant controls, followed by washing. Challenges and concomitant controls were performed at 1 ml/well during 10 min. All samples were tested in triplicate. After the challenge 150 μl RIPA buffer (RIPA, TBS, 1% Nonidet P-40, 0.5% sodium deoxycholate, 0.1% SDS, 0.004% sodium azide, 1% PMSF (2 mM final concentration), 1% sodium orthovanadate (1 mM final concentration) and 1% protease inhibitor cocktail) was added to each well. The plates were incubated for 15 minutes at 4° C. The lysed cells were scraped from the surface. The lysate was transferred to 1.5 ml eppendorf cups and centrifuged 5 minutes at 12.700×g to pellet the cell debris. The supernatant was transferred into new cups and of a 5 al sample the total protein content was determined via the DC protein assay according to lowry (Bio-Rad), with BSA used as calibration protein. Protein was separated on gel and blotted with p-ERK mouse monoclonal IgG2a and mouse GAPDH anti-rat IgG1 antibodies and as a second antibody goat anti-mouse IgG-AP. The phosphorylated Erk proteins and GAPDH were stained with BCIP/NBT and quantified relative to GAPDH and total Erk using TotalLab software. Alternatively, total Erk phosphorylation was measured after permeabilization of the non-detached cells.
In this example it is investigated whether or not cAng-(1-7) analogs with an N-terminal extension of two amino acids stimulate the AT2 receptor.
Thioether bridged peptide synthesis and cell culture and measurement of Erk1- and total Erk phosphorylation were essentially as in example 2.

[1] = tested on: extracellular-signal-regulated kinase (ERK) phosphorylation in human bronchial epithelial (HBE) cells; assay: Peptide-induced Erk1/Erk2/total Erk phosphorylation in HBE cells; assay type: cell-based; settings: peptide 10^-6 M, 10 min challenge
Procedure: as §1, §2
as §3, with “The lysate was transferred to 1.5 ml eppendorf cups and centrifuged 5 minutes at 12.700×g to pellet the cell debris.” left out, “Protein was separated on gel and blotted with p-ERK mouse monoclonal IgG2a and mouse GAPDH anti-rat IgG1 antibodies and as a second antibody goat anti-mouse IgG-AP.” left out, “cells. […]” for “cells.”

Mas receptor = target: T2, Mas receptor (Rattus norvegicus, UniProt P12526); assay: Peptide-induced vasodilation of precontracted aorta rings in presence of Mas receptor antagonist D-Pro7-Ang-(1-7); design: species or system Sprague Dawley rat; settings: D-Pro7-Ang-(1-7) 0.1 μM, 10 min before 30 nM PE
T2 construct: vasodilation in precontracted aorta rings from Sprague Dawley rats; from tissue; host or cells: aorta rings of male Sprague Dawley rats
T2 sequence (P12526 1-324): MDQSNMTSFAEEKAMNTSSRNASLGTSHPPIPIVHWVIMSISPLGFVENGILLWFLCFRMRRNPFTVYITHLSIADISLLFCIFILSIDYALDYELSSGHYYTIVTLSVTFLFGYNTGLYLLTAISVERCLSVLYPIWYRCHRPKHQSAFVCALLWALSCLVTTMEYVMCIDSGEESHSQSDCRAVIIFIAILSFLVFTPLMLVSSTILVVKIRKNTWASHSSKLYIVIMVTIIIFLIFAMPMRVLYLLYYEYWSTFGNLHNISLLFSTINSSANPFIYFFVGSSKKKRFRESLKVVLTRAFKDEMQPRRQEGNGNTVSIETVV
Procedure: (§4) Vasodilation on precontracted aorta-rings. Arterial rings for organ bath experiments were prepared as described previously (Kluskens L D, et al. 2009. J Pharmacol Exp Ther 328:849-54). Before testing the vasodilating effects of the peptides the rings were precontracted to 50% of their maximum contraction level with 30 nM phenylephrine (PE). The 5,8 thioether bridged peptides KDRV[AIHA]C (SEQ ID No: 3) or YDRV[AIHA]c (SEQ ID No: 5) were added cumulatively in a range of 0.1 nM to 1 μM. Vasodilation data are represented as percentage of relaxation of 30 nM PE contraction.
D-Pro7-ang-(1-7), ang-(1-7) with a D-isomer of proline at position 7, which is a Mas-receptor antagonists, was from JPT and purified by HPLC prior to use. This antagonist was used as in Kluskens et al 2009: 10 min before addition of 30 nM PE at a concentration of 0.1 μM. Other materials and methods were as in example 1.

[2] = tested on: precontracted aorta rings; assay: Vasodilation on phenylephrine-precontracted aorta rings (organ bath); design: species or system Sprague Dawley rat; settings: sub-nM concentration; peptides added cumulatively 0.1 nM to 1 μM; rings precontracted with 30 nM phenylephrine
Procedure: Peptides: KDRVdCIHC (SEQ ID No: 9), and YDRVdCIHC (SEQ ID No: 10) wherein dC stands for D-cysteine were purchased from JPT. Specified pathogen-free male Sprague Dawley rats (SD) (Harlan, Zeist, The Netherlands), weighing […] were used. Prior to the experiment, the animals were housed together with free access of tap water and solid chow (Harlan, Zeist, The Netherlands) in a temperature and humidity controlled room and a 12/12 h light/dark cycle. All protocols described were approved by the University of Groningen Committee for Animal Experimentation.
Thioether-bridged peptides were obtained from the disulfide bridged peptide via base-asisted sulfur extrusion as previously (Galande A K, et al 2003. Biopolymers 71:534-551).
as §4

Asn-Asp-Arg-Val-Abu/Ala-Ile-His-Abu/Ala (NDRVAIHA; not fully specified; thioether bridge (lanthionine); cyclic AT2 receptor antagonist) [N-cAng(1-7)]
interaction with / stimulation of the AT2 receptor (conclusion from PD123319 sensitivity of ERK phosphorylation) (AT2 receptor): did not or hardly interact with the AT2 receptor | inhibition of peptide-induced ERK1 phosphorylation by PD123319 (AT2 receptor): less | inhibition of peptide-induced ERK2 phosphorylation by PD123319 (AT2 receptor): less or absent

Asp-Asp-Arg-Val-Abu/Ala-Ile-His-Abu/Ala (DDRVAIHA; not fully specified; thioether bridge (lanthionine); cyclic AT2 receptor antagonist) [DcAng-(1-7)]
peptide-induced Erk1 phosphorylation [1]: induced Erk1 phosphorylation | inhibition of peptide-induced ERK1 phosphorylation by PD123319 (AT2 receptor): inhibited | inhibition of peptide-induced ERK phosphorylation (ERK1 and ERK2) by PD123319 (AT2 receptor): complete

DDRVAIHA (cyclic AT2 receptor antagonist) [reference compound]
peptide-induced (total) Erk phosphorylation [1]: induced Erk phosphorylation | inhibition of peptide-induced (total) Erk phosphorylation by PD123319 (AT2 receptor): could not be inhibited

IDDRVAIHA (not fully specified) [reference compound]
peptide-induced (total) Erk phosphorylation [1]: induced Erk phosphorylation | inhibition of peptide-induced (total) Erk phosphorylation by PD123319 (AT2 receptor): no inhibition at all

Ile-Asp-Arg-Val-Abu/Ala-Ile-His-Abu/Ala (IDRVAIHA; not fully specified; thioether bridge (lanthionine); cyclic AT2 receptor antagonist) [IcAng-(1-7)]
peptide-induced Erk1 phosphorylation [1]: induced Erk1 phosphorylation | inhibition of peptide-induced ERK1 phosphorylation by PD123319 (AT2 receptor): inhibited | inhibition of peptide-induced ERK phosphorylation (ERK1 and ERK2) by PD123319 (AT2 receptor): complete

Lys-Asp-Arg-Val-Abu/Ala-Ile-His-Abu/Ala (KDRVAIHA; not fully specified; thioether bridge (lanthionine); cyclic AT2 receptor antagonist) [KcAng-(1-7), cAng-(1-7) N-terminally extended with Lys]
inhibition of peptide-induced vasodilation by Mas receptor antagonist D-Pro7 (Mas receptor): does not inhibit | inhibition of peptide-induced ERK phosphorylation (ERK1 and ERK2) by PD123319 (AT2 receptor): complete | vasodilation of precontracted aorta rings (percentage of relaxation of 30 nM PE contraction) [2]: significant vasodilating capacity

ScAng-(1-7): thioether bridged cAng-(1-7) with Ser at position -1, made from SDRVdCIHC (SEQ ID No: 14) (SDRV[dC]IHC; bridge 5-8; not fully specified (bridges); also: thioether formed from the disulfide precursor by sulfur extrusion)
interaction with / stimulation of the AT2 receptor (conclusion from PD123319 sensitivity of ERK phosphorylation) (AT2 receptor): did not or hardly interact with the AT2 receptor | inhibition of peptide-induced ERK1 phosphorylation by PD123319 (AT2 receptor): less | inhibition of peptide-induced ERK2 phosphorylation by PD123319 (AT2 receptor): did not affect | inhibition of peptide-induced ERK2 phosphorylation by PD123319 (AT2 receptor; listed as Ser): less or absent

Tyr-Asp-Arg-Val-Abu/Ala-Ile-His-Abu/Ala (YDRVAIHA; not fully specified; thioether bridge (lanthionine); cyclic AT2 receptor antagonist) [YcAng-(1-7), cAng-(1-7) N-terminally extended with Tyr]
inhibition of peptide-induced vasodilation by Mas receptor antagonist D-Pro7 (Mas receptor): does not inhibit | vasodilation of precontracted aorta rings (percentage of relaxation of 30 nM PE contraction) [2]: significant vasodilating capacity
